The supplement of paper PMC7877785
± gives the uncertainty stated by the source.

Assay: self-splicing fitness, log relative to wild type (ln ratio); higher = more splicing; Tetrahymena group I intron in knt gene, E. coli kanamycin selection, DiMSum; sequences stand for … in CUCUCU…GGAGGGAAAAGUUAUCAGGCAUGCACCUGGUAGCUAGUCUUUAAACCAAUAGAUUGCAUCGGUUUAAAAGGCAAGACCGUCAAAUUGCGGGAAAGGGGUCAACAGCCGUUCAGUACCAAGUCUCAGGGGAAACUUUGAGAUGGCCUUGCAAAGGGUAUGGUAAUAAGCUGACGGACAUGGUCCUAACCACGCAGCCAAGUCCUAAGUCAACAGAUCUUCUGUUGAUAUGGAUGCAGUUCACAGACUAAAUGUCGGUCGGGGAAGAUGUAUUCUUCUCAUAAGAUAUAGUCGGACCUCUCCUUAAUGGGAGCUAGCGGAUGAAGUGAUGCAACACUGGAGCCGCUGGGAACUAAUUUGUAUGCGAAAGUAUAUUGAUUAGUUUUGGAGUACUCGUGGUCG
In short: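 The eight P1ex-region nucleotides of an intron in the knt kanamycin-resistance gene on pET-22b(+) were all randomised and the library put into E. coli BL21(DE3). Six replicate transformations were grown overnight at 37°C or 30°C on LB agar with or without 25 μg/mL kanamycin, together with 100 μg/mL carbenicillin, 50 μM IPTG and 0.2% rhamnose. Colonies were pooled and amplicon-sequenced on an Illumina HiSeq 2500. Fitness from DiMSum is the error-weighted combination of wild-type-normalised replicate fold changes, kanamycin over none.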

Sequence	self-splicing fitness (ln) (30 °C)	self-splicing fitness (ln) (37 °C)
CAGUAGCAAUAUUACGUGGC	-2.97 ± 0.28	-2.36 ± 0.29
CAGUAGCAAUAUUACGUUAA	-2.74 ± 0.19	-3.5 ± 0.23
CAGUAGCAAUAUUACGUUUA	-3.19 ± 0.23	-3.02 ± 0.25
CAUAAGCAAUAUUACGAAAU	-3.7 ± 0.2	-2.68 ± 0.22
CAUAAGCAAUAUUACGAAUA	-1.84 ± 0.24	-2.9 ± 0.43
CAUAAGCAAUAUUACGAAUG	-3.79 ± 0.23	-2.32 ± 0.19
CAUAAGCAAUAUUACGAGAA	–	-2.27 ± 0.3
CAUAAGCAAUAUUACGAUUA	-1.64 ± 0.14	-1.4 ± 0.14
CAUAAGCAAUAUUACGCAAA	-2.93 ± 0.44	-2.46 ± 0.41
CAUAAGCAAUAUUACGCAUC	–	-3.39 ± 0.43
CAUAAGCAAUAUUACGCAUG	-1.55 ± 0.12	-2.27 ± 0.23
CAUAAGCAAUAUUACGCCAG	-1.42 ± 0.14	-0.932 ± 0.19
CAUAAGCAAUAUUACGCCGG	-0.252 ± 0.13	-0.546 ± 0.2
CAUAAGCAAUAUUACGCGAG	-1.99 ± 0.097	-1.39 ± 0.085
CAUAAGCAAUAUUACGCGCG	-0.536 ± 0.14	0.0409 ± 0.15
CAUAAGCAAUAUUACGCGUU	-3.3 ± 0.15	-1.55 ± 0.13
CAUAAGCAAUAUUACGCUAG	-3.34 ± 0.16	-2.4 ± 0.15
CAUAAGCAAUAUUACGCUGU	-3.79 ± 0.27	-1.05 ± 0.15
CAUAAGCAAUAUUACGGAGA	–	-3.12 ± 0.38
CAUAAGCAAUAUUACGGAUC	–	-1.38 ± 0.23
CAUAAGCAAUAUUACGGCAU	-4.06 ± 0.31	-1.15 ± 0.2
CAUAAGCAAUAUUACGGCGG	0.324 ± 0.087	-0.0169 ± 0.12
CAUAAGCAAUAUUACGGCUA	-1.56 ± 0.13	-1.51 ± 0.12
CAUAAGCAAUAUUACGGCUC	-2.88 ± 0.44	-1.88 ± 0.43
CAUAAGCAAUAUUACGGUAC	-2.89 ± 0.19	-2.14 ± 0.29

Sequence	self-splicing fitness (ln) (30 °C)	self-splicing fitness (ln) (37 °C)
CAUAAGCAAUAUUACGGUCA	-2.41 ± 0.24	-1.89 ± 0.2
CAUAAGCAAUAUUACGUCAC	-3.86 ± 0.29	–
CAUAAGCAAUAUUACGUGAA	-3.45 ± 0.2	-2.14 ± 0.18
CAUAAGCAAUAUUACGUGUC	-3.62 ± 0.2	-2.55 ± 0.17
CAUAAGCAAUAUUACGUUCG	-0.99 ± 0.079	0.184 ± 0.09
CAUCAGCAAUAUUACGAAAC	-3.66 ± 0.47	-3.45 ± 0.32
CAUCAGCAAUAUUACGAACG	0.463 ± 0.11	0.656 ± 0.11
CAUCAGCAAUAUUACGACUG	-0.425 ± 0.084	-0.238 ± 0.098
CAUCAGCAAUAUUACGAGCG	-0.443 ± 0.059	0.466 ± 0.072
CAUCAGCAAUAUUACGAUCA	-0.959 ± 0.11	-0.294 ± 0.13
CAUCAGCAAUAUUACGAUGG	-0.479 ± 0.057	-0.173 ± 0.074
CAUCAGCAAUAUUACGAUUG	-1.45 ± 0.054	-0.782 ± 0.071
CAUCAGCAAUAUUACGCAGA	-2.69 ± 0.21	-2.86 ± 0.31
CAUCAGCAAUAUUACGCAGG	-0.441 ± 0.062	-1.15 ± 0.079
CAUCAGCAAUAUUACGCCAC	-2.77 ± 0.46	-2.22 ± 0.43
CAUCAGCAAUAUUACGCCAU	-3.98 ± 0.35	-2.97 ± 0.24
CAUCAGCAAUAUUACGCGCG	0.0702 ± 0.07	0.438 ± 0.084
CAUCAGCAAUAUUACGCUAA	-2.1 ± 0.17	-1.69 ± 0.16
CAUCAGCAAUAUUACGCUGU	-3.65 ± 0.18	-1.84 ± 0.15
CAUCAGCAAUAUUACGGAUA	-0.862 ± 0.06	0.0386 ± 0.074
CAUCAGCAAUAUUACGGAUU	-0.959 ± 0.062	-0.143 ± 0.077
CAUCAGCAAUAUUACGGCAC	-3.89 ± 0.24	-2.56 ± 0.24
CAUCAGCAAUAUUACGGCUU	-2.91 ± 0.14	-1.75 ± 0.17
CAUCAGCAAUAUUACGGGGG	-1.94 ± 0.084	-0.816 ± 0.1
CAUCAGCAAUAUUACGGUCU	-2.82 ± 0.1	-2.22 ± 0.15

Sequence	self-splicing fitness (ln) (30 °C)	self-splicing fitness (ln) (37 °C)
CAUCAGCAAUAUUACGUCAC	-3.06 ± 0.15	-2.68 ± 0.23
CAUCAGCAAUAUUACGUGGA	-3.6 ± 0.19	-2.05 ± 0.12
CAUCAGCAAUAUUACGUGGC	-4.41 ± 0.27	-2.72 ± 0.19
CAUCAGCAAUAUUACGUGUA	-1.18 ± 0.083	-0.43 ± 0.079
CAUCAGCAAUAUUACGUGUU	-2.31 ± 0.12	-2.79 ± 0.24
CAUCAGCAAUAUUACGUUAC	-4.12 ± 0.39	-1.92 ± 0.22
CAUCAGCAAUAUUACGUUCU	-3.82 ± 0.2	-3.32 ± 0.23
CAUCAGCAAUAUUACGUUUG	-1.57 ± 0.064	-0.71 ± 0.089
CAUGAGCAAUAUUACGACUU	-3.95 ± 0.32	-3.81 ± 0.36
CAUGAGCAAUAUUACGAGCA	-3.68 ± 0.31	-2.56 ± 0.23
CAUGAGCAAUAUUACGAUAU	-3.32 ± 0.25	-2 ± 0.31
CAUGAGCAAUAUUACGAUUC	-3.18 ± 0.21	-1.66 ± 0.19
CAUGAGCAAUAUUACGCAAA	-3.92 ± 0.38	-1.97 ± 0.24
CAUGAGCAAUAUUACGCAUU	-2.88 ± 0.19	-2.03 ± 0.24
CAUGAGCAAUAUUACGCCAG	-1.94 ± 0.19	-1.84 ± 0.24
CAUGAGCAAUAUUACGCGCG	-1.29 ± 0.15	0.0218 ± 0.14
CAUGAGCAAUAUUACGCUAG	-3.07 ± 0.21	-2.82 ± 0.23
CAUGAGCAAUAUUACGCUCC	–	-1.38 ± 0.48
CAUGAGCAAUAUUACGCUGA	-3.24 ± 0.18	-3.09 ± 0.23
CAUGAGCAAUAUUACGGGGU	-3.25 ± 0.3	-3.38 ± 0.33
CAUGAGCAAUAUUACGGUGG	-1.49 ± 0.078	-0.665 ± 0.088
CAUGAGCAAUAUUACGGUUC	-3.65 ± 0.46	-2.13 ± 0.38
CAUGAGCAAUAUUACGUCCU	-4.2 ± 0.32	-1.88 ± 0.2
CAUGAGCAAUAUUACGUCUA	-2.57 ± 0.17	-2.28 ± 0.21
CAUGAGCAAUAUUACGUGAA	-3.86 ± 0.3	-2.53 ± 0.29

Sequence	self-splicing fitness (ln) (30 °C)	self-splicing fitness (ln) (37 °C)
CAUGAGCAAUAUUACGUGCU	-3.6 ± 0.38	-2.39 ± 0.32
CAUGAGCAAUAUUACGUGUU	-3.85 ± 0.16	-2.31 ± 0.15
CAUGAGCAAUAUUACGUUGG	-2.69 ± 0.17	-1.81 ± 0.15
CAUGAGCAAUAUUACGUUUU	-3.66 ± 0.21	-2.86 ± 0.24
CAUUAGCAAUAUUACGAAUA	-2.12 ± 0.14	-0.64 ± 0.13
CAUUAGCAAUAUUACGAGUU	-3.7 ± 0.17	-2.67 ± 0.18
CAUUAGCAAUAUUACGAUAA	-2.24 ± 0.2	-1.75 ± 0.23
CAUUAGCAAUAUUACGAUCG	0.173 ± 0.082	0.274 ± 0.12
CAUUAGCAAUAUUACGAUUC	-2.1 ± 0.18	-0.901 ± 0.17
CAUUAGCAAUAUUACGCCUA	–	-1.73 ± 0.31
CAUUAGCAAUAUUACGCGCU	-2.9 ± 0.21	-1.51 ± 0.26
CAUUAGCAAUAUUACGCGUG	-3.16 ± 0.15	-2.89 ± 0.24
CAUUAGCAAUAUUACGCUCU	-2.64 ± 0.2	-1.43 ± 0.22
CAUUAGCAAUAUUACGGAGG	-0.36 ± 0.11	-0.878 ± 0.16
CAUUAGCAAUAUUACGGCUC	-3.78 ± 0.28	-1.39 ± 0.18
CAUUAGCAAUAUUACGGUAC	-1.9 ± 0.16	-2.07 ± 0.46
CAUUAGCAAUAUUACGGUUG	-1.63 ± 0.09	-0.664 ± 0.11
CAUUAGCAAUAUUACGUAUC	-3.14 ± 0.31	-2.26 ± 0.28
CAUUAGCAAUAUUACGUCAU	-4.39 ± 0.3	-2.48 ± 0.21
CAUUAGCAAUAUUACGUCGA	-2.75 ± 0.14	-2.05 ± 0.12
CAUUAGCAAUAUUACGUGCU	-4.27 ± 0.24	-2.36 ± 0.27
CCAAAGCAAUAUUACGAAGU	-3.04 ± 0.15	-2.42 ± 0.2
